Experiments:
[1] = target: T1, alkylglycerone-phosphate synthase (AGPS) peptide on HLA-B*40:01 (human); experiment: killing
T1 peptide: DETRTIISL
Method: (§1) LCL were pulsed with QEVRTISAL (SEQ ID NO: 1) peptide at 1000 ng/ml prior to co-culture (>5 biological replicates per HLA). […] The tested peptides include […] (SEQ ID NO: 50), […] (SEQ ID NO: 64), and […] (SEQ ID NO: 65). QEVRTISAL (SEQ ID NO: 1) peptide and the wild-type equivalent QKVRTISAL (SEQ ID NO: 2) were included as controls (3 technical replicate experiments). […] For all experiments, mean and standard error of the mean (SEM) are shown.
(§2) Cytotoxicity was measured in short-term (4-hour) assays using 51Cr-labeled target cells. Briefly, target cells were labeled with ⁵¹Cr overnight (cell lines) or for 6 hours (primary leukemia) at 37° C. and 5% CO₂. Effector cells were added to labeled target cells and incubated for 4 hours. After co-incubation, supernatant was harvested for γ-counting. Specific lysis was calculated using a standard formula. Targets used included autologous LCL with and without peptides in varying concentrations. All targets were washed to remove excess 51Cr and residual interferon-γ or peptide before co-culture initiation.

[2] = target: T2, SF3B1 K700E epitope with alanine at position 9 peptide on HLA-B*40:01 (human); experiment: killing
T2 peptide: QEVRTISAA
Method: as §1, §2

[3] = target: T3, SF3B1 K700E epitope with alanine at position 1 peptide on HLA-B*40:01 (human); experiment: killing
T3 peptide: AEVRTISAL
Method: as §1, §2

[4] = target: T4, CBFB-MYH11 type A peptide on HLA-B*40:01 (human); experiment: killing
T4 peptide: REEMEVHEL
Method: as §1, §2

[5] = target: T5, mitochondrial trifunctional enzyme subunit alpha (HADHA) peptide on HLA-B*40:01 (human); experiment: killing
T5 peptide: PEERTIEYL
Method: as §1, §2

[6] = target: T6, SF3B1 K700E peptide on HLA-B*40:02 (human); experiment: killing
T6 peptide: QEVRTISAL
Method: as §1, §2

[7] = target: T7, SF3B1 K700E epitope with valine at position 8 peptide on HLA-B*40:01 (human); experiment: killing
T7 peptide: QEVRTISVL
Method: as §1, §2

[8] = target: T8, SF3B1 K700E epitope with alanine at position 6 peptide on HLA-B*40:01 (human); experiment: killing
T8 peptide: QEVRTASAL
Method: as §1, §2

[9] = target: T9, spermatogenesis-associated protein 1 (SPATA1) peptide on HLA-B*40:01 (human); experiment: killing
T9 peptide: VEDRTIRQL
Method: as §1, §2

[10] = target: T10, SF3B1 K700E epitope with alanine at position 7 peptide on HLA-B*40:01 (human); experiment: killing
T10 peptide: QEVRTIAAL
Method: as §1, §2

[11] = target: T11, SF3B1 K700E epitope with alanine at position 5 peptide on HLA-B*40:01 (human); experiment: killing
T11 peptide: QEVRAISAL
Method: as §1, §2

[12] = target: T12, SF3B1 wild-type peptide on HLA-B*40:01 (human); experiment: killing
T12 peptide: QKVRTISAL
Method: as §1, §2

[13] = target: T13, SF3B1 K700E epitope with alanine at position 3 peptide on HLA-B*40:01 (human); experiment: killing
T13 peptide: QEARTISAL
Method: as §1, §2

[14] = target: T14, SF3B1 K700E epitope with glycine at position 8 peptide on HLA-B*40:01 (human); experiment: killing
T14 peptide: QEVRTISGL
Method: as §1, §2

[15] = target: T15, SF3B1 K700E epitope with alanine at position 2 peptide on HLA-B*40:01 (human); experiment: killing
T15 peptide: QAVRTISAL
Method: as §1, §2

[16] = target: T16, Gem-associated protein 5 (GEMIN5) peptide on HLA-B*40:01 (human); experiment: killing
T16 peptide: IEPRTIFCL
Method: as §1, §2

[17] = target: T17, SF3B1 K700E epitope with alanine at position 4 peptide on HLA-B*40:01 (human); experiment: killing
T17 peptide: QEVATISAL
Method: as §1, §2

[18] = target: T18, SF3B1 K700E peptide on HLA-B*40:01 (human); experiment: peptide titration 51Cr-release assay; clone 24 against autologous LCL pulsed with varying peptide concentrations; T cell clone or line
T18 peptide: QEVRTISAL
Method: as §1, §2

B1: TCR24 (SF3B1^K700E/B*40:01-specific TCR from clone 24) (TCR, V domains shown)
Valpha: AQSVTQPDIHITVSEGASLELRCNYSYGATPYLFWYVQSPGQGLQLLLKYFSGDTLVQGIKGFEAEFKRSQSSFNLRKPSVHWSDAAEYFCAVAAKDSSYKLIFGSGTRLLVRP
Vbeta: SAVISQKPSRDICQRGTSLTIQCQVDSQVTMMFWYRQQPGQSLTLIATANQGSEATYESGFVIDKFPISRPNLTFSTLTVSNMSPEDSSIYLCSDRGQVVGETQYFGPGTRLLVL
Question: Does B1 bind [1]?
Answer: Result: no recognition

Question: Does B1 bind [2]?
Answer: Result: no recognition

Question: Does B1 bind [3]?
Answer: Result: recognises

Question: Does B1 bind [4]?
Answer: Result: no recognition

Question: Does B1 bind [5]?
Answer: Result: no recognition

Question: Does B1 bind [6]?
Answer: Result: no recognition

Question: Does B1 bind [7]?
Answer: Result: recognises

Question: Does B1 bind [8]?
Answer: Result: no recognition

Question: Does B1 bind [9]?
Answer: Result: no recognition

Question: Does B1 bind [10]?
Answer: Result: recognises

Question: Does B1 bind [11]?
Answer: Result: no recognition

Question: Does B1 bind [12]?
Answer: Result: no recognition

Question: Does B1 bind [13]?
Answer: Result: recognises

Question: Does B1 bind [14]?
Answer: Result: recognises

Question: Does B1 bind [15]?
Answer: Result: no recognition

Question: Does B1 bind [16]?
Answer: Result: no recognition

Question: Does B1 bind [17]?
Answer: Result: no recognition

Question: What about the EC50 of peptide [18] of the same binder?
Answer: Its EC50 of peptide is about 0.1 ng/mL.

— patent US20250025499A1 (published 2025)
